Experimental data as given in patent US20070041944A1, “Treating tumors by ENH dislocation of ID proteins” (THE TRUSTEES OF COLUMBIA UNIVERSITY IN THE CITY OF NEW YORK, priority 2005, published 2007).

How the values were obtained:
[1] = test system: endogenous Id2 in SK-N-SH cells; test: Subcellular localization of endogenous Id2 after ectopic Flag-ENH (immunofluorescence); format: cell-based, human; details: SK-N-SH transiently transfected with Flag-ENH (FIG. 4B)
Experimental: Quantitative Analysis of Subcellular Localization of Id2 and siRNA Experiments: SK-N-SH-Flag-Id2 cells untreated or treated with RA for 48 h were fixed in 4% paraformaldehyde. Flag-Id2 and endogenous ENH were immunostained by using Flag-M2 (Sigma) and ENH antibodies, respectively. SK-N-SH cells were transfected with vector or p3XFlag-ENH and immunostained by using Flag-M2 and Id2 (Zymed) antibodies. For silencing of ENH, ENH siRNA (siGenome Smartpool reagent M-006930-00) and control, nontargeting (siGenome Smartpool reagent D-001206-13) siRNA mixtures were purchased from Dharmacon. SK-N-SH cells stably expressing Flag-Id2 were treated with vehicle control or RA for 48 h and transfected with 60 nM siRNAs by using Lipofectamine 2000 (Invitrogen). Thirty-six hours after transfection cells were fixed in 4% paraformaldehyde and immunostained by using Flag-M2 antibodies. Parallel cultures were analyzed by Western blot. Secondary antibodies were FITC- or Cy3-conjugated anti-rabbit and Cy3-conjugated anti-mouse (Jackson ImmunoResearch). Nuclei were counterstained with DAPI. Slides were mounted in 90% glycerol in PBS and analyzed on an Olympus epifluorescence microscope. The percentage of cells displaying Id2 staining in the nucleus was scored by counting at least 500 cells from triplicate samples. […]

[2] = molecular target: T1, GST-Id2 (Homo sapiens, UniProt Q02363); test: GST pull-down assay with GST-Id2; format: binding; details: in vitro-translated 35S-labeled proteins, autoradiography (FIG. 2B)
T1 construct: made in house; host or cells: E. coli BL21 Star (Invitrogen)
T1 sequence (Q02363 1-134): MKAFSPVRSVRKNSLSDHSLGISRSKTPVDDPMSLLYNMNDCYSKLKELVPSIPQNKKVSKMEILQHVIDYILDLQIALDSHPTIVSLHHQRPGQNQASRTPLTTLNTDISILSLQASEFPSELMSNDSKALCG
Experimental: (§1) GST Pull-Down Assay, Western Blot, and Coimmunoprecipitation: GST fusion proteins were purified from BL21 Star (Invitrogen). GST pull-down assay was performed as described in lavarone, A. et al., (1994), Genes Dev., 8:1270-1284. For Wetern blot analysis, cellular pellets were lysed in ice-cold RIPA buffer (50 mM Tris, pH 7.5/150 mM NaCl/1% Nonidet P-40/0.5% sodium deoxycholate/0.1% SDS) containing Complete Mini protease inhibitor pellet (Roche) and 1 mM PMSF. Lysates were electrophoresed on SDS/PAGE gels and transferred to nitrocellulose membrane (Amersham Pharmacia Biotech). Membranes were stained with antibodies against ENH, Id2 (Santa Cruz Biotechnology), and α-tubulin (Sigma), and blots were developed by using ECLWestem Blotting Detection System (Amersham Pharmacia Biotech). The anti-ENH antibody is a rabbit polyclonal that was produced in collaboration with Zymed against a peptide that is fully conserved in the mouse sequence (KQQNGPPRKHI (SEQ ID NO:1)). Coimmunoprecipitation of Id2 and ENH from cells transfected with pcDNA.3-Id2 and p3XFlag-ENH was performed as described (lavarone, A. et al., (2004), Nature, 432:1040-1045).
(§2) To validate the specificity of the binding between ENH and Id2 and identify the domains that mediate this interaction, GST fusion proteins and in vitro-translated proteins in pull-down assays.

[3] = molecular target: T2, GST-Id3 (Homo sapiens, UniProt Q02535); test: GST pull-down assay with GST-Id3; format: binding; details: in vitro-translated 35S-labeled ENH (FIG. 2B Right)
T2 construct: made in house; host or cells: E. coli BL21 Star (Invitrogen)
T2 sequence (Q02535 1-119): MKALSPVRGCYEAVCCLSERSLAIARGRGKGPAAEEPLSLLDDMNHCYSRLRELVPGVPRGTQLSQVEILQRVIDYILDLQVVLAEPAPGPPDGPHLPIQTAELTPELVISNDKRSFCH
Experimental: as §1
Given the high homology among the HLH domains of the three Id proteins, it was asked whether Id1 and Id3 could also bind ENH in this assay. Indeed, both GST-Id1 and GST-Id3 bound to full-length ENH (FIG. 2B Right).

[4] = test system: SK-N-SH cells; test: BrdU incorporation study; format: cell-based, human; details: BrdU 6 h and 14 h
Experimental: BrdU Incorporation Study: SK-N-SH cells were plated in Lab-Tek Chamber Slides (Nalge Nunc Intl.). Cells were transfected with plasmids expressing the empty vector, Id2, ENH, or both and an EGFP expression vector to identify transfected cells. After 24 h, cells were labeled with 10 μM BrdU for 6 h and 14 h, fixed, and stained with anti-BrdU antibody (Roche) for 1 h at room temperature. Secondary antibody was donkey anti-mouse, Cy3-conjugated (Jackson hnmunoResearch). Nuclei were counterstained with DAPI. Cells were examined on an Olympus epifluorescence microscope. BrdU-positive cells were scored by counting at least 500 GFP-positive cells in three independent experiments.
(§3) A well known function of Id2 is the ability to enhance cell proliferation by promoting the transition from G1 to S phase of the cell cycle. Therefore, it was asked whether ENH inhibited cell proliferation and opposed Id2-mediated entry into S phase. […] Next SK-N-SH was transfected with ENH and Id2 in the presence of a GFP expression plasmid and measured the rate of DNA synthesis by incorporation of BrdU of the successfully transfected, GFP-positive cells.

[5] = test system: IMR-32 neuroblastoma cell line; test: Colony-forming assay; format: cell-based, human; details: transfected with pcDNA3-ENH, G418 selection 14 days
Description: (§4) Cell Culture, Colony-Forming Assay, and Transfection: Neuroblastoma cell lines SK-N-SH, IMR-32, and LAN-1, the glioma cell lines SF188, and COS-1 cells were maintained in 10% FBS (Sigma) in DMEM (Cambrex). For colony-forming assay cells were transfected with pcDNA3-ENH or vector control. Cells were selected in G418 for 14 days, and colonies were scored in triplicate cultures. Cells were transfected by using Lipofectamine 2000 according to the manufacturer's instructions.
as §3

[6] = test system: SK-N-SH neuroblastoma cell line; test: Colony-forming assay; format: cell-based, human; details: transfected with pcDNA3-ENH, G418 selection 14 days
Description: as §4, §3

[7] = test system: SF188 glioma cell line; test: Colony-forming assay; format: cell-based, human; details: transfected with pcDNA3-ENH, G418 selection 14 days
Description: as §4, §3

[8] = test system: GST-δHLHId2; test: GST pull-down assay with GST-Id2 lacking the HLH domain; format: binding; details: in vitro-translated 35S-labeled ENH (FIG. 2B Right)
Experimental: as §1, §2

B1: ENH: actin cytoskeleton-associated PDZ-LIM protein ENH (Enigma Homologue), full-length, SEQ ID NO:4; also used Flag-tagged (protein, listed as Homo sapiens)
chain: MSNYSVSLVGPAPWGFRLQGGKDFNMPLTISSLKDGGKAAQANVRIGDVVLSIDGINAQGMTHLEAQNKIKGCTGSLNMTLQRASAAPKPEPVPVQKGEPKEVVKPVPITSPAVSKVTSTNNMAYNKAPRPFGSVSSPKVTSIPSPSSAFTPAHATTSSHASPSPVAAVTPPLFAASGLHANANLSADQSPSALSAGKTAVNVPRQPTVTSVCSETSQELAEGQRRGSQGDSKQQNGPPRKHIVERYTEFYHVPTHSDASKKRLIEDTEDWRPRTGTTQSRSFRILAQITGTEHLKESEADNTKKANNSQEPSPQLASSVASTRSMPESLDSPTSGRPGVTSLTTAAAFKPVGSTGVIKSPSWQRPNQGVPSTGRISNSATYSGSVAPANSALGQTQPSDQDTLVQRAEHIPAGKRTPMCAHCNQVIRGPFLVALGKSWHPEEFNCAHCKNTMAYIGFVEEKGALYCELCYEKFFAPECGRCQRKILGEVINALKQTWHVSCFVCVACGKPIRNNVFHLEDGEPYCETDYYALFGTICHGCEFPIEAGDMFLEALGYTWHDTCFVCSVCCESLEGQTFFSKKDKPLCKKHAHSVNF
Q: With B1 as the molecule, how does the “subcellular localization of endogenous Id2” value [1] read?
A: Its value is “translocation of Id2 to the cytoplasm”.

Q: And the “binding of GST-Id2 to ENH constructs” value [2]?
A: The value was “bound efficiently”.

Q: What about the “binding of GST-Id3 to ENH” value [3] of the same molecule?
A: The value was “bound”.

Q: What about the “Id2-mediated stimulation of DNA synthesis” value ([4]; ENH and Id2 cotransfected) of the same molecule?
A: Its value is “abrogated”.

Q: And the “S phase entry (BrdU incorporation of GFP-positive cells)” value ([4]; ectopic ENH)?
A: The value was “strongly inhibited”.

Q: And the colony formation [5]?
A: The colony formation was “markedly inhibited”.

Q: What about the colony formation [6] of the same molecule?
A: The colony formation was “markedly inhibited”.

Q: And the colony formation [7]?
A: The colony formation was “markedly inhibited”.

Q: And the “binding of GST-δHLHId2 to ENH” value [8]?
A: Its value is “failed to bind”.
